Experimental data reported in paper PMC4555817.

Biological target: GST-tagged full-length cortactin (UniProt Q60598)
Test: pull-down

UniProt Q60598, sequence (Q60598 whole entry): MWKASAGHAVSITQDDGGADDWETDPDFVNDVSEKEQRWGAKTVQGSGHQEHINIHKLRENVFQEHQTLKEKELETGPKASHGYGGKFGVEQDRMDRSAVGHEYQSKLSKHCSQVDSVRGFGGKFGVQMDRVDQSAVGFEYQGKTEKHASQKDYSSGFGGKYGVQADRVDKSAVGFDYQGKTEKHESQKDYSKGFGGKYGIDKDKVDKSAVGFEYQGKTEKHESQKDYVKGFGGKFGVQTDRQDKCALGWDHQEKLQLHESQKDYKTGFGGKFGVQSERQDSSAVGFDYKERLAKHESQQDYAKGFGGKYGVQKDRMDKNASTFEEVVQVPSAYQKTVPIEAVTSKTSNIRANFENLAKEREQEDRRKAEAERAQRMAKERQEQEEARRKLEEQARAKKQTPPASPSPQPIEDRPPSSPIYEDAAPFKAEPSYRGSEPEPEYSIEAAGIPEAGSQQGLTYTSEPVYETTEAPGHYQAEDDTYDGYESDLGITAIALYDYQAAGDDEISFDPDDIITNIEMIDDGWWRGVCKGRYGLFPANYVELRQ

Ki: 461 nM
Substance: actin filaments (from UniProt P68139 1-377) (natural protein)
